The numbers were not newly measured in publication PMC10871162, which cites them from elsewhere.

Like-named read-outs stand apart in the source and are kept apart here.

The target in one data set is RyR peptide (UniProt P21817).
The target in the next data set is RIIβ peptide (UniProt P31323).
For data set [1], the target named is RyR peptide RyR peptide (Homo sapiens) (UniProt P21817).
The target in data set [2] is TRTK-12 (CapZ peptide) (Homo sapiens) (UniProt P52907).
Data set [3] deals with nonmuscle myosin IIA mysIIA peptide (Homo sapiens) (UniProt P35579).
The target of data set [4] is myosin IIA peptide (Homo sapiens) (UniProt P35579).
For data set [5], the target named is TRTK-12 (CapZ peptide) (Homo sapiens) (UniProt P52907). This is another data set of the same source.

Chain of UniProt P21817 (P21817 whole entry): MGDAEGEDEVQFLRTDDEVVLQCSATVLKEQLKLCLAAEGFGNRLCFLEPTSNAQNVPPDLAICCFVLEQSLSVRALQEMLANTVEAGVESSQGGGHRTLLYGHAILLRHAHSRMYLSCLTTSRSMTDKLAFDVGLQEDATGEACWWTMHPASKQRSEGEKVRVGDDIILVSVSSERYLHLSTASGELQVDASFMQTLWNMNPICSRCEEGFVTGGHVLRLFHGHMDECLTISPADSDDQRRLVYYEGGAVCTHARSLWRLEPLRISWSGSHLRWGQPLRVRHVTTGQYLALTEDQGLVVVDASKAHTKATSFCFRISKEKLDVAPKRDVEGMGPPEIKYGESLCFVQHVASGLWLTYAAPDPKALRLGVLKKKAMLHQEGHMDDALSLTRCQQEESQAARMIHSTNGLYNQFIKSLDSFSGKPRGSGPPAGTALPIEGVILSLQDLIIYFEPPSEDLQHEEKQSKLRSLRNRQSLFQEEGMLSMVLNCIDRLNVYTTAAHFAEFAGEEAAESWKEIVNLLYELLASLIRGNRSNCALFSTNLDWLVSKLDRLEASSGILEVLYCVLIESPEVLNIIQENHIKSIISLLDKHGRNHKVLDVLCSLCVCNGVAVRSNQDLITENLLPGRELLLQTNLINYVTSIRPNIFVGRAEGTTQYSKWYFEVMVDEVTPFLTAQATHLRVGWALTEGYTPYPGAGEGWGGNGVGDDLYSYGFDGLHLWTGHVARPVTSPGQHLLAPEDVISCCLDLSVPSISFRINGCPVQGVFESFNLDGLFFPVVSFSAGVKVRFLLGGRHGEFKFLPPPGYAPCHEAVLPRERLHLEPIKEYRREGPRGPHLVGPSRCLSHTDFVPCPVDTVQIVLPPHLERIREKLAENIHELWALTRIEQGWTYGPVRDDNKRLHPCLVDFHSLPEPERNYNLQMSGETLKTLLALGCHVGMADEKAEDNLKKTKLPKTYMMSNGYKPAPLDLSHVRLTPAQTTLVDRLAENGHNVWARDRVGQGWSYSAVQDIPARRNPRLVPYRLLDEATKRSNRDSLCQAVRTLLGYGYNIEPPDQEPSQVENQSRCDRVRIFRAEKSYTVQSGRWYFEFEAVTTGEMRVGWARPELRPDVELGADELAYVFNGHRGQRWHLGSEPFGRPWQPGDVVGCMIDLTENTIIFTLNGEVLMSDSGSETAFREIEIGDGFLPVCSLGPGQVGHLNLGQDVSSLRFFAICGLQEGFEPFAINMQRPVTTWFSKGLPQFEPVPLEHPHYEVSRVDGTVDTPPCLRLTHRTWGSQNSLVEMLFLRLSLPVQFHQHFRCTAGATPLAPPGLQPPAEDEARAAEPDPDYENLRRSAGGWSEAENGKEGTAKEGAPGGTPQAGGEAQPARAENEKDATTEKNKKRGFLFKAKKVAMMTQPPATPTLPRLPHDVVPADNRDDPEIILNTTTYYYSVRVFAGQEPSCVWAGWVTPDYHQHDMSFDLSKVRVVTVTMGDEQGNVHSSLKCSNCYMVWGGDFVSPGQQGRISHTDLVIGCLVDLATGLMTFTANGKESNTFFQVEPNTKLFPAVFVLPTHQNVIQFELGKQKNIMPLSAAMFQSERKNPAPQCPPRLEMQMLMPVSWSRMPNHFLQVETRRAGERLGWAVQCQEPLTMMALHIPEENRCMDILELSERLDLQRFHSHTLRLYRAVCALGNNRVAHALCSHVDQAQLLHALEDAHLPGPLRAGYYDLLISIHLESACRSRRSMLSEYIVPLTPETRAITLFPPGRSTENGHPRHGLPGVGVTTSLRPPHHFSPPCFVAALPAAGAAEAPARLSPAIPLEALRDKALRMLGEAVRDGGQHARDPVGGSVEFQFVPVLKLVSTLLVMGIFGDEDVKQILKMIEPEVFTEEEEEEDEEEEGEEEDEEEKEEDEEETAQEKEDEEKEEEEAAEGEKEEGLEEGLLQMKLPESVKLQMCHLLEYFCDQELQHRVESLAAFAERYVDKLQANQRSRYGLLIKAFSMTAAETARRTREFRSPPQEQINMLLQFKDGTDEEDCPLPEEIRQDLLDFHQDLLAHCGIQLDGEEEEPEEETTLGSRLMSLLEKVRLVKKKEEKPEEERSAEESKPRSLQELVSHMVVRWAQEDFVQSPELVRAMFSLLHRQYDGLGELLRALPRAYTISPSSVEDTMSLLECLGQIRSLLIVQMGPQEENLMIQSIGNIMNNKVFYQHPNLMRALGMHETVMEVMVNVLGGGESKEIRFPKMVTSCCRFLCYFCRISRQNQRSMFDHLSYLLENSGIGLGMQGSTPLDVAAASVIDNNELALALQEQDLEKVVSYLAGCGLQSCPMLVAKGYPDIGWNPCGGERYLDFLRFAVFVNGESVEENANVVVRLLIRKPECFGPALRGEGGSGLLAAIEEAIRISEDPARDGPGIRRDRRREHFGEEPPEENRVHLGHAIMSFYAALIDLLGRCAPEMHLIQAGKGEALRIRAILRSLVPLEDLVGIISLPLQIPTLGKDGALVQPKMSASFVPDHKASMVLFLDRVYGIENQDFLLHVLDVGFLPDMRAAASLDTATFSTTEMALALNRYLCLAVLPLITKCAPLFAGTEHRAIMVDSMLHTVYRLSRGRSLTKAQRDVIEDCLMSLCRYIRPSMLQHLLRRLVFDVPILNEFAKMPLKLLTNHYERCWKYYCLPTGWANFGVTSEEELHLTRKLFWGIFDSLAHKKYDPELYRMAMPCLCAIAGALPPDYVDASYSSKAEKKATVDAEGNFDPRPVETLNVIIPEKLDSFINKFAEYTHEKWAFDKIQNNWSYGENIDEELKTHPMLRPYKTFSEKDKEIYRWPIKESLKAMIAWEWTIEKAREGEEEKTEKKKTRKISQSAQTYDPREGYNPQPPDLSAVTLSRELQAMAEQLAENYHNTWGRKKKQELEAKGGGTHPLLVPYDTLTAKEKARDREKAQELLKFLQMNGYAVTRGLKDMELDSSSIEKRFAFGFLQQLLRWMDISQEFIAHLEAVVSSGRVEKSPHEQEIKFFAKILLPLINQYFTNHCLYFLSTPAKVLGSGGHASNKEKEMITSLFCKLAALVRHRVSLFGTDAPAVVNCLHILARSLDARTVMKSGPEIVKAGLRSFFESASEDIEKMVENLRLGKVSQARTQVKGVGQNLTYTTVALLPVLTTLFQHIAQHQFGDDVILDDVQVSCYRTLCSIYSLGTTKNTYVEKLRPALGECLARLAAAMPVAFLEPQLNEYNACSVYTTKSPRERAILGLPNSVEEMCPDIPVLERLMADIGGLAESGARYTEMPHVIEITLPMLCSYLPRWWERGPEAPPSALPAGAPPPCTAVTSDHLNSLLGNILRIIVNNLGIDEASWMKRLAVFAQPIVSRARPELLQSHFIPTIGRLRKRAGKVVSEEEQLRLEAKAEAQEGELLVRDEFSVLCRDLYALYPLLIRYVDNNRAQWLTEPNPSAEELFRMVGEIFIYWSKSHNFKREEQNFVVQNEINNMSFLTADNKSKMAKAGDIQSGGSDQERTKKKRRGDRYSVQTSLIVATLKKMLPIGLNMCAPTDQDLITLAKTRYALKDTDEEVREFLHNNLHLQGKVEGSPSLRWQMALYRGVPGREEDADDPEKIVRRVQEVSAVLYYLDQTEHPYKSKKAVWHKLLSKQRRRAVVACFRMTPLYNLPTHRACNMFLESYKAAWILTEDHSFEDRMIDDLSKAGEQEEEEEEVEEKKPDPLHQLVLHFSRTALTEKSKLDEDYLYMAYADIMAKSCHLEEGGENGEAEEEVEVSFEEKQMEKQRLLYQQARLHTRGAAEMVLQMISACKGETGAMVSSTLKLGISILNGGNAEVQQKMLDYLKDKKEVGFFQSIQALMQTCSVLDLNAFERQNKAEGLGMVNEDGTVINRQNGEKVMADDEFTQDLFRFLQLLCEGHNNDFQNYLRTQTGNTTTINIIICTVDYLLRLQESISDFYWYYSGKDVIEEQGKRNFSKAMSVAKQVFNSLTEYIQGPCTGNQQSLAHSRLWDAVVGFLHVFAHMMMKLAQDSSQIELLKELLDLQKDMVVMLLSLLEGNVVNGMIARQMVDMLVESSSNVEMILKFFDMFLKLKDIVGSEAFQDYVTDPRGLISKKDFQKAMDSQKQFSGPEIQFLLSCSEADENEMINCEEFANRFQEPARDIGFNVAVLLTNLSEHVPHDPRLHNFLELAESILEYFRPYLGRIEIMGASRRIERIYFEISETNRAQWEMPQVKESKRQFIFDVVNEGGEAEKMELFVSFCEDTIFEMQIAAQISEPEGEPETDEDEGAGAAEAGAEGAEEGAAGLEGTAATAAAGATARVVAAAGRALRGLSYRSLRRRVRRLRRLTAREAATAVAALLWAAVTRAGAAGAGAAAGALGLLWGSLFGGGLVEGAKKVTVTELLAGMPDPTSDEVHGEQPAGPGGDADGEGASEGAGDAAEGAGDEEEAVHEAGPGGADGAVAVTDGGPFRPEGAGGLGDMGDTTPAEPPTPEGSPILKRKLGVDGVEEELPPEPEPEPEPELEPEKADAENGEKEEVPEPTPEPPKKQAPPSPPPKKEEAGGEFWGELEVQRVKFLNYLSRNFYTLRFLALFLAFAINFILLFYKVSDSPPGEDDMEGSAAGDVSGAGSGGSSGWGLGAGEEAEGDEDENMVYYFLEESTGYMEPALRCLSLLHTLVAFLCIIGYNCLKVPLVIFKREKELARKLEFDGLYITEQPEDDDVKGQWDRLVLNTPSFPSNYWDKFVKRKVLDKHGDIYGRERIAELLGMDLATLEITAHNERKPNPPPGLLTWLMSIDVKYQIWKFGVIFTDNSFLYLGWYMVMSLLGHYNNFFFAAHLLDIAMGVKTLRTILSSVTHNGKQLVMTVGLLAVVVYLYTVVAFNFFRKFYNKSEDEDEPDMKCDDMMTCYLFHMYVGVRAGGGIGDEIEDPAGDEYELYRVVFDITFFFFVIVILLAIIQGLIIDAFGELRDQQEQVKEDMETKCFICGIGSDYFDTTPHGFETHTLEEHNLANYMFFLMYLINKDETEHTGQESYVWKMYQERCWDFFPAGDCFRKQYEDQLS

For the substance S100A1 (from UniProt P23297), the Kd (usually the free concentration of one partner at which half of the binding sites on the other are occupied at equilibrium, for simple one-to-one binding) is 8 µM with RyR peptide, 2 µM with RIIβ peptide, 8 µM in data set [1] and 23 µM in data set [2].

Regarding S100A4 (from UniProt P26447), the dissociation constant (Kd) in data set [3] and in data set [4] was below 0.001 µM in each case.

In the case of S100B (from UniProt P04271), the equilibrium dissociation constant (Kd) in data set [5] was 2.9 µM.
